Measured values published in the supplement of paper PMC9170038.

Tests used:
[1] = test system: MS2 coat protein; assay: apparent KD of MS2 coat protein; designed switch direction (-1 OFF switch, 1 ON switch): 1; higher = weaker reporter binding; conditions: Eterna round: R98
Protocol: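 RNA-MaP: designed FMN/MS2 RNA switches (84 nt design region) are transcribed on-chip within common flanks and titrated with SNAP-549-labelled MS2 coat protein (about 1-3000 nM) in 100 mM Tris pH 7.5, 80 mM KCl, 4 mM MgCl2, without or with 200 uM FMN. Median apparent KD per design; activation ratio = KD,OFF / KD,ON.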

[2] = test system: MS2 coat protein; assay: apparent KD of MS2 coat protein, switch ON state; designed switch direction (-1 OFF switch, 1 ON switch): 1; higher = weaker reporter binding; conditions: FMN input: 0 or 200 uM; Eterna round: R93 (includes R88 designs)
Method in brief: (§1)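 Designed RNA switches were transcribed on-chip from Illumina sequencing clusters. SNAP-549-labelled MS2 coat protein was titrated onto them in twofold steps from 0.7 or 1.5 nM to 3 µM in 100 mM Tris-HCl pH 7.5, 80 mM KCl, 4 mM MgCl2, either without or with constant ligand. Apparent KD reflects the per-design median of normalised cluster binding-curve fits.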

[3] = test system: MS2 coat protein; assay: apparent KD of MS2 coat protein, switch OFF state (with FMN for OFF switches, without FMN for ON switches); designed switch direction (-1 OFF switch, 1 ON switch): 1; higher = weaker reporter binding; conditions: FMN input: 0 or 200 uM; Eterna round: R93 (includes R88 designs)
Method in brief: as §1

Sequence | apparent KD of MS2 coat protein ([1]; input ligand: FMN 200 uM) [µM] | apparent KD of MS2 coat protein ([1]; input ligand: none) [µM] | apparent KD of MS2 coat protein [2] [µM] | apparent KD of MS2 coat protein [3] [µM]
GCUUGCGACGCAGGAUAUGGGUGCCUGCACAUGAGCAUCAGCCAUGUUGAGGAACGGAUUACGUCUCAGAAGGGCGUGGCAGGC [United States 3 - Jieux - Same State NG 2] | 0.0167 | 0.0199 | – | –
GGAUCCAACACAGGAUAUGCUGGACUUUGUCCAGCAGAAGGGUGAAACAUGAGGAUCACCCAUGUAUGGAUCCAUAUAUUUAAU [Denovo 32] | 0.245 | 0.629 | – | –
GGCUUAAACACAGGAUAUAGCCUUAGAGUGAGGCUAGAAGGGUGAAGUUCUCAUACAUGAGGAUCACCCAUGUCACGGAGGCUA [Atteedbian] | 0.307 | 0.0371 | – | –
GGGAGACAUGAGGAUCACCCAUGUGAGAAGAGGCGAGGAUAUCGAAAGAAAGAAGAGAAACGAGAAGGCGCGAGUG [salish99-SS1-058] | – | – | 0.0648 | 0.082
GGGAGGAAGAGAGAGGAUAUCCAAAGGAAAACAUGAGGAUCACCCAUGUAAAAGGUAGGAAAUUGGGAGAAGGCUCAAAAGAGUG [salish99-ss2-043] | – | – | 0.0137 | 0.0222
GGGAGGAAGAGAGAGGAUAUCCAAAGGAAAACAUGAGGAUCACCCAUGUAAAAGGUAGGAAAUUGGGAGAAGGCUCAAAAGAUGG [salish99-ss2-046] | – | – | 0.0705 | 0.0223
GUAGCAUACAGAGGAUAUUCAAACCGGAAACGGACAUGAGGAUCACCCAUGUGGCGAAAGCCUAGGGAGAAGGCUGAAUGCUAC [Xeinanis 75 40] | 0.0117 | 0.016 | – | –
UAACGCGCAUGCAAGGAUAUGUGCAGAGCUACAUGAGGAUCACCCAUGUGGUUAUGCUAUUGAAAACAGAAGGUGCCCUCGCUCA [Ceties] | – | – | 0.0224 | 0.0168
UAUCAUUACACGAAGGAUAUCGAUAAUUGAACAUGAGGAUCACCCAUGUGAUAUAUAAUACAGUUCGAGAAGGUCGAGGGUGAAG [JR_SS002_Sub704] | – | – | 0.0178 | 0.0239
UGAAGACAUGAGGAUCACCCAUGUGGGAAUAUGGGAGGAUAUACAAAGACGAGAGUCAGAGUAGAAGGCCUAGGAA [salish99-ss1-95] | – | – | 0.0285 | 0.114
UGAAGACAUGAGGAUCACCCAUGUGGGAAUAUGGGAGGAUAUACAAAGACGAGAGUCAGAGUAGAAGGCCUAGGAG [salish99-ss1-97] | – | – | 0.0551 | 0.103
UGAGGACAUGAGGAUCACCCAUGUAGGCCACAAUCAGGAUAUGCAUUAAGGUACCUAAGAGUAGAAGGGAUUCGAG [SameState_Neo] | – | – | 0.0349 | 0.0308
UGGAGACAUGAGGAUCACCCAUGUGAGAAGAGGCGAGGAUAUCGAAAGAAAGAAGAGAAACGAGAAGGCGCGAGAU [salish99-SS1-034] | – | – | 0.021 | 0.0276
UGGAGACAUGAGGAUCACCCAUGUGAGAAGAGGCGAGGAUAUCGAAAGAAAGAAGAGAAACGAGAAGGCGCGAGGA [salish99-SS1-039] | – | – | 0.0476 | 0.0498
UGGAGACAUGAGGAUCACCCAUGUGAGAAGAGGCGAGGAUAUCGAAAGAAAGAAGAGAAACGAGAAGGCGCGAGGU [salish99-SS1-036] | – | – | 0.0344 | 0.0496
UGUCUACCUGAUGAGGAUAUCCCACAGGCGACAUGAGGAUCACCCAUGUAAAGUAAGCGUAGGCGGGAGAAGGCAUGGCGGAGAC [Larearre] | – | – | 0.0145 | 0.0307
UUUAGUUGCGGGCAGGAUAUGUAUUAAAAUACAUGAGGAUCACCCAUGUGCGGGUAUAACACCCGACAGAAGGGCCAAUCGCGAC [Laonerce] | – | – | 0.0183 | 0.305
